Consider three molecules from publication PMC5643494, “TRPA1–FGFR2 binding event is a regulatory oncogenic driver modulated by miRNA-142-3p” (Nature Communications, 2017).

Test [1] addresses TRPA1-GFP truncated of 5 ankyrin repeats (Δ5-GFP). The test is described as follows: FRET or BRET; FLIM-FRET in fixed serum-starved HEK 293T cells co-expressing FGFR2-RFP with Δ5-GFP or Δ10-GFP; shift of GFP lifetime against empty GFP vector. Background: Bioluminescence resonance energy transfer reports proximity on the nanometre scale.
The target of test [2] is T1, purified full-length human TRPA1 (human, UniProt O75762 1-1119, biotinylated with EDC-based carboxyl-biotinylation reagent (streptavidin pull-down); labeled with Alexafluor 488 (MST); unlabelled in the GST pull-down).
T1 construct: human TRPA1, full length; kept in PBS with 0.014% F-14; also called hTRPA1; full-length purified TRPA1; source: Pichia pastoris, purified (Ni-NTA)
T1 sequence (O75762 whole entry): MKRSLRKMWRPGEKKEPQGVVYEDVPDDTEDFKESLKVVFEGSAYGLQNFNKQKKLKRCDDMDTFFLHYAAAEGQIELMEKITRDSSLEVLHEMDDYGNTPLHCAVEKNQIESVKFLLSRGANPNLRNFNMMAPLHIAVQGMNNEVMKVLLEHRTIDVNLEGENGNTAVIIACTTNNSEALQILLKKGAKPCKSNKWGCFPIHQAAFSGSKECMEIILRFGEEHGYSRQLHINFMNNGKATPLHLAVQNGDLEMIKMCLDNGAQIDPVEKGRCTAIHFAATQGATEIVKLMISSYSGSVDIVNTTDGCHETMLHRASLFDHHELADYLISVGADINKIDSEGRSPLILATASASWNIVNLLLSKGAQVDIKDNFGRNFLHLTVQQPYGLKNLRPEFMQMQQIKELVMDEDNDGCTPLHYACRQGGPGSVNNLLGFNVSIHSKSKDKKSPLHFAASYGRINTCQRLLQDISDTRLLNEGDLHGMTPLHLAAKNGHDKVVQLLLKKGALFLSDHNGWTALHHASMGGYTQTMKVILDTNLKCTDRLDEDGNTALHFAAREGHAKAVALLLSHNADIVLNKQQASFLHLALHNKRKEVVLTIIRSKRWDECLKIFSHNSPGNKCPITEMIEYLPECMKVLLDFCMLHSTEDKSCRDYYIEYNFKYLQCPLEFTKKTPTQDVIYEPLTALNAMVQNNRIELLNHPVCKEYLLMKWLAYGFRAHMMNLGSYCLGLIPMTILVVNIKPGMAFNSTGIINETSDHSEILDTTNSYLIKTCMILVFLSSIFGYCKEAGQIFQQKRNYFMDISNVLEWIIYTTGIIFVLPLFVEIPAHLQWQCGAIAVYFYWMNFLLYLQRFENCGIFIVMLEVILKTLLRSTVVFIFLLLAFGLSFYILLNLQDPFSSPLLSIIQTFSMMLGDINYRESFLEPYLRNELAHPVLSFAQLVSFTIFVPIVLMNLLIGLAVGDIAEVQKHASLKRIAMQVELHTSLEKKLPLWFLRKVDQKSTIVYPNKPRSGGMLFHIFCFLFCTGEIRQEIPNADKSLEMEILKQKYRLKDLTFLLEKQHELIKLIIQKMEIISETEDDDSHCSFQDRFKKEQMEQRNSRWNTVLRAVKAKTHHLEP
In words: pull-down; GST constructs on glutathione-sepharose beads incubated with purified full-length TRPA1; western blot. The settings on record: both partners purified.

Chain of TRPA1-GFP truncated of 5 ankyrin repeats (Δ5-GFP) (O75762 whole entry, stated change not applied, the tested form may be a part): as the sequence (O75762 whole entry) above

Turning to “FGFR2-RFP (from UniProt P21802 22-821) (receptor)”, the shift of GFP fluorescence lifetime (FLIM-FRET) in test [1] stood at 0.09 ns.

B1: GST fusion of FGFR2 residues 764-821 with P804A (C4) (domain or fragment, UniProt P21802 764-821, looked up)
chain: TTNEEYLDLSQPLEQYSPSYPDTRSSCSSGDDSVFSPDPMAYEPCLPQYPHINGSVKT
notes: FGFR2, last 58 amino acids, residues 764-821, P804A
Turning to B1, in test [2], the binding result was “binds”.

B2: GST fusion of the last 58 amino acids of FGFR2 (residues 764-821), wild-type construct (C) (domain or fragment, UniProt P21802 764-821, looked up)
chain: TTNEEYLDLSQPLEQYSPSYPDTRSSCSSGDDSVFSPDPMPYEPCLPQYPHINGSVKT
notes: FGFR2, last 58 amino acids, residues 764-821; PGEX vector
B2: the binding result in test [2] is “binds”.
